Test results taken from patent US20240261333A1 (published 2024).

How the values were obtained:
Assay in all cases: co-IP with anti-FLAG, mass spectrometry; lysate of cells with N-FLAG B3GNT2
STAU2 = target: T1, STAU2 (human, UniProt Q9NUL3 1-570, limits assumed)
T1 construct: also called NP_001157852.1 (+4)
T1 sequence (looked up): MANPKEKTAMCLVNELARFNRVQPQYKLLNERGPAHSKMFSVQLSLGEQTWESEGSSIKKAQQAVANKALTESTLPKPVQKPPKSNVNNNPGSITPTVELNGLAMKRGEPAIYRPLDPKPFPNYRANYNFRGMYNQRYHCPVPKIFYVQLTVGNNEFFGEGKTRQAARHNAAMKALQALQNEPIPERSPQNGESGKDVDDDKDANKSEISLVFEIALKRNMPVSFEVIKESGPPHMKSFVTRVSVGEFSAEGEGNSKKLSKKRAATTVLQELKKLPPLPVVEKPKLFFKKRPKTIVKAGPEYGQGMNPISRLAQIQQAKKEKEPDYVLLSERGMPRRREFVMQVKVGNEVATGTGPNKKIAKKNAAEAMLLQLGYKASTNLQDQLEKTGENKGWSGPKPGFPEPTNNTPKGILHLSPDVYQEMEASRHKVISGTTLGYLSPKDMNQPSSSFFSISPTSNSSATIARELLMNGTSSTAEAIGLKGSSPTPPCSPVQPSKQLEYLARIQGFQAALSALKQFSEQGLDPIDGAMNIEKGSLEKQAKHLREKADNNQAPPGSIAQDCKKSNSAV

RRP12 = target: T2, RRP12 (human, UniProt Q5JTH9-3 1-1236, limits assumed)
T2 construct: also called NP_001138586.1 (+4)
T2 sequence (looked up): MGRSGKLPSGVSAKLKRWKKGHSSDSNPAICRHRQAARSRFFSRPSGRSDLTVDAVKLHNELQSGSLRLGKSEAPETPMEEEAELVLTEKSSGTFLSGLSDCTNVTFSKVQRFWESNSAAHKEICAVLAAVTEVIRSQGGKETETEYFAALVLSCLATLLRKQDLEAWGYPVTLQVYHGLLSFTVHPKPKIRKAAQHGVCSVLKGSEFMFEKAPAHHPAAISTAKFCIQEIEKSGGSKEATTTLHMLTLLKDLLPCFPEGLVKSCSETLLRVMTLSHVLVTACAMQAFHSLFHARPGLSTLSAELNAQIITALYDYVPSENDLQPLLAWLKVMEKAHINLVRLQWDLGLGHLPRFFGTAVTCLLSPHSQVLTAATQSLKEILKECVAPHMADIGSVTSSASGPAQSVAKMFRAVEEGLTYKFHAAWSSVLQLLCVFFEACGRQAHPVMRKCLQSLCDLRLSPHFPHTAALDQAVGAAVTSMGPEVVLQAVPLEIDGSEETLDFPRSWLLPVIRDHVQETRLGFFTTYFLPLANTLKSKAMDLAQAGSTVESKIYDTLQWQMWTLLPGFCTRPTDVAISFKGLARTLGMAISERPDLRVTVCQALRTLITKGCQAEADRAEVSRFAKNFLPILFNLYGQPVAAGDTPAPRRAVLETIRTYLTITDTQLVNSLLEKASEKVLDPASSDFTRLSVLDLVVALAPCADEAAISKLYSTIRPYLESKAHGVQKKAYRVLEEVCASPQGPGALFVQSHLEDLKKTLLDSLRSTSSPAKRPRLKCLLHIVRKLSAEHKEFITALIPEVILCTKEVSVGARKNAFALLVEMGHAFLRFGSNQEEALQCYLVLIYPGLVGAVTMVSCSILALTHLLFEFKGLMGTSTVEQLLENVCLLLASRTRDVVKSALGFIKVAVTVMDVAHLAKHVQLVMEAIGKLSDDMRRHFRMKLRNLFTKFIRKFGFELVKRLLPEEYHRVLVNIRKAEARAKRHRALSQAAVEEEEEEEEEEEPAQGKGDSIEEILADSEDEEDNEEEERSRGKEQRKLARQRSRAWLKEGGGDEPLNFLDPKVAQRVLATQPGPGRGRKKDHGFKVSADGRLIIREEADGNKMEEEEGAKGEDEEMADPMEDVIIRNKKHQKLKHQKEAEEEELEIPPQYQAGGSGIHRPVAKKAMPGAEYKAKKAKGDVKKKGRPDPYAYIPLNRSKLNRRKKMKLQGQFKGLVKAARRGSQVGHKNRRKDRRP

TOR1AIP2 = target: T3, TOR1AIP2 (human, UniProt Q8NFQ8 2-470)
T3 construct: also called NP_001336864.1 (+1)
T3 sequence (Q8NFQ8 2-470 limits assumed): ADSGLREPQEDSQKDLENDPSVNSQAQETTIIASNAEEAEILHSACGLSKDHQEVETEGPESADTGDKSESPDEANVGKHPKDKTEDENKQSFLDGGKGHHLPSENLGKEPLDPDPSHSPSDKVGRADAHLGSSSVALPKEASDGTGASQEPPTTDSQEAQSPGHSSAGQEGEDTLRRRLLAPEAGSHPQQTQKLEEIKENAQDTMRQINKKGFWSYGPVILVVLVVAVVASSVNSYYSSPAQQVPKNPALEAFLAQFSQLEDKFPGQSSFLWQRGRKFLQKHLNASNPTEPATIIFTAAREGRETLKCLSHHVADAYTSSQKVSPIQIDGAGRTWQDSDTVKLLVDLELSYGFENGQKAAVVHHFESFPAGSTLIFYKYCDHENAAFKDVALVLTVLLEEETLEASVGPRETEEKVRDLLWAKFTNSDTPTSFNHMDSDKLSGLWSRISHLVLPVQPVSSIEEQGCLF

Measured: co-IP mass spectrometry count

B1: N-terminal FLAG tagged B3GNT2 (enzyme, human, UniProt Q9NY97 1-397, looked up)
chain: MSVGRRRIKLLGILMMANVFIYFIMEVSKSSSQEKNGKGEVIIPKEKFWKISTPPEAYWNREQEKLNRQYNPILSMLTNQTGEAGRLSNISHLNYCEPDLRVTSVVTGFNNLPDRFKDFLLYLRCRNYSLLIDQPDKCAKKPFLLLAIKSLTPHFARRQAIRESWGQESNAGNQTVVRVFLLGQTPPEDNHPDLSDMLKFESEKHQDILMWNYRDTFFNLSLKEVLFLRWVSTSCPDTEFVFKGDDDVFVNTHHILNYLNSLSKTKAKDLFIGDVIHNAGPHRDKKLKYYIPEVVYSGLYPPYAGGGGFLYSGHLALRLYHITDQVHLYPIDDVYTGMCLQKLGLVPEKHKGFRTFDIEEKNKNNICSYVDLMLVHSRKPQEMIDIWSQLQSAHLKC
notes: Bait of the co-IP; pulled down with mouse anti-FLAG (Millipore Sigma F3165) from cell lysate; also called N-FLAG B3GNT2; N-term FLAG; not shown: N-terminal FLAG tag
0: all assays above
